Laboratory results from patent publication US20230038638A1, “COMPLEMENT FACTOR I-RELATED COMPOSITIONS AND METHODS” (published 2023).

How the values were obtained:
human C4b (human) = biological target: T1, human C4b (human) (UniProt P0C0L5)
T1 sequence: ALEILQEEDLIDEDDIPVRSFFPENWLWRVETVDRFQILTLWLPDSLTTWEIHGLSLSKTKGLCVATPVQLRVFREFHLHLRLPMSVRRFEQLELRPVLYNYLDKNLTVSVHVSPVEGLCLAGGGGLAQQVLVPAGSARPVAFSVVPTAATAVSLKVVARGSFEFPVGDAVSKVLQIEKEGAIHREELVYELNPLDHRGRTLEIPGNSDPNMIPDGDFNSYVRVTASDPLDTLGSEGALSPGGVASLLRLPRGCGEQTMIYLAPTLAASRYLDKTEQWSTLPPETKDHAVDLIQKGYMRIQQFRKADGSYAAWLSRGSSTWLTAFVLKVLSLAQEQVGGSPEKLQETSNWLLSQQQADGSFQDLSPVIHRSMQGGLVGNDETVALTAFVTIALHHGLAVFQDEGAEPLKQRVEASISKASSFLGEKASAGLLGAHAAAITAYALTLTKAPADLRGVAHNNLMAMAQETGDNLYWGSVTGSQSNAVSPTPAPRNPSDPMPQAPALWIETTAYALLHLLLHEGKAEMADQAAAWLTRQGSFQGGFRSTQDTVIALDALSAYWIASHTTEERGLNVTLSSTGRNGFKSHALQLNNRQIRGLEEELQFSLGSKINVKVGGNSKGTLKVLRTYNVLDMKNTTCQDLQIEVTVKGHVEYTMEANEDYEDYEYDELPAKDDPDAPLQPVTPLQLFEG

[1] = biological target: soluble human C3b (human) (UniProt P01024)

Substance	C4b Screen Ref Fold (fold vs CFI-HSA wild type) (human C4b (human))	iC3b Screen Ref Fold (fold vs CFI-HSA wild type) [1]	C4b Screen Ref Fold (fold of CFI-HSA wild type) (human C4b (human))	iC3b Screen Ref Fold (fold of CFI-HSA wild type) [1]	further results
CFI-HSA K368E (enzyme)	0.06	0.2			
CFI-HSA Q69G (enzyme)	0.14	1.17			
CFI-HSA variant P535K (enzyme)	1.02	1.61			
CFI-HSA variant E457G; N531G; P535G; P558S (enzyme)			1.56	0.87	
CFI-HSA variant E457G; E461Q; R462K; F464Y; N531G; GGSSGG (SEQ ID NO: 6); CR1(ccp15-17) (from UniProt P17927) (enzyme)			5.42	-0.01	
CFI-HSA variant S507A (enzyme)	0.13	0.04			
CFI-HSA variant S552G; Y553H; F559L; P558S (enzyme)			2.33	0.18	
CFI-HSA R557M (enzyme)	2.48	0.16			
CFI-HSA variant Y408L; K534Q (enzyme)			1.26	0.97	
CFI-HSA R371G (enzyme)	0.15	0.17			
CFI-HSA Y408L; E530Y (enzyme)	0.33	1.93			
(HSA-GS)-V311-V565 - G(13) - K1-G310 (enzyme)	0.34	0.03			
CFI-HSA variant F559Y (enzyme)					C4b Screen Ref Fold (fold relative to CFI-HSA wild type) (human C4b (human)): 0.66; iC3b Screen Ref Fold (fold relative to CFI-HSA wild type) [1]: 1.23
CFI-HSA variant V565I (enzyme)			1.11	1.25	
CFI-HSA variant Y20F; E38A; S250A; D425A (enzyme)	0.21	0.67			
CFI-HSA variant Δ(V565) (enzyme)					C4b Screen Ref Fold (fold relative to CFI-HSA wild type) (human C4b (human)): 1.57; iC3b Screen Ref Fold (fold relative to CFI-HSA wild type) [1]: 0.54

Substance	C4b Screen Ref Fold (fold vs CFI-HSA wild type) (human C4b (human))	iC3b Screen Ref Fold (fold vs CFI-HSA wild type) [1]	C4b Screen Ref Fold (fold of CFI-HSA wild type) (human C4b (human))	iC3b Screen Ref Fold (fold of CFI-HSA wild type) [1]	further results
CFI-HSA variant E457G; P535G; N422K (enzyme)			1.87	1.43	
CFI-HSA variant G556P (enzyme)			0.65	0.39	
CFI-HSA variant Y408L; N531G; P535G; WT; GGSSGG (SEQ ID NO: 6); CR1(ccp15-17) (from UniProt P17927) (enzyme)			3.6	0.05	
CFI-HSA D549K (enzyme)	1	0.18			
CFI-HSA variant S552G; V565I; P558S (enzyme)			0.89	1.32	
CFI-HSA D549P (enzyme)	1.08	0.53			
CFI-HSA variant R462A (enzyme)	0.31	0.11			
CFI-HSA K424G (enzyme)	0.32	1.44			
CFI-HSA Y553R (enzyme)	0.78	1.38			
CFI-HSA D549Q (enzyme)	1.1	0.84			
CFI-HSA variant S507A; GGSSGG (SEQ ID NO: 6); CR1(ccp15-17) (from UniProt P17927) (enzyme)			-0.01	-0.01	
CFI-HSA Y408L; E457G; E461Q; R462K; N531G; R557K (enzyme)	4.01	1.14			
CFI-HSA E457G; E461Q; N531G; GGSSGG (SEQ ID NO: 6); CR1 (ccp15-17) (from UniProt P17927) (enzyme)	4.82	0.12			
CFI-HSA variant E530D (enzyme)	0.24	0.25			
CFI-HSA variant Y553F; F559L (enzyme)			0.77	0.35	
CFI-HSA R365H (enzyme)	0.31	0.43			
